How the values were obtained:
[1] = system: primary human cell cultures (11 cell types); experiment: Custom gene array, 11 human cell types in normoxia or hypoxia for 6 hr and 18 hr; format: cell-based; settings: for HIGHEST FOLD CHANGE IN HYPOXIA (hr hypoxia + cell type): hypoxia/normoxia induction ratio;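 as to mRNA expression level, #1 HY 18 hr: cell type #1 is adipocyte from subcutaneous adult adipose tissue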;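 as to mRNA expression level, #1 HY 6 hr: cell type #1 is adipocyte from subcutaneous adult adipose tissue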;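 as to mRNA expression level, #1 NO: cell type #1 is adipocyte from subcutaneous adult adipose tissue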;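 as to mRNA expression level, #2 HY 18 hr: cell type #2 is fetal cardiomyocyte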;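 as to mRNA expression level, #2 HY 6 hr: cell type #2 is fetal cardiomyocyte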;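 as to mRNA expression level, #2 NO: cell type #2 is fetal cardiomyocyte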;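 as to mRNA expression level, #3 HY 6 hr: cell type #3 is human umbilical vein endothelial cells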;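 as to mRNA expression level, #3 NO: cell type #3 is human umbilical vein endothelial cells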;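 as to mRNA expression level, #4 HY 18 hr: cell type #4 is adult dermal fibroblast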;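 as to mRNA expression level, #4 HY 6 hr: cell type #4 is adult dermal fibroblast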;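 as to mRNA expression level, #4 NO: cell type #4 is adult dermal fibroblast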;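 as to mRNA expression level, #5 HY 6 hr: cell type #5 is adult hepatocyte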;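 as to mRNA expression level, #5 NO: cell type #5 is adult hepatocyte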;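 as to mRNA expression level, #6 HY 6 hr: cell type #6 is blood-derived macrophage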;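 as to mRNA expression level, #6 NO: cell type #6 is blood-derived macrophage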
Method in brief: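 Eleven primary, unmodified human cell types (one non-primary neuronal type) held in normoxia or hypoxia for 6 hr and 18 hr. RNA hybridised to duplicate or triplicate custom arrays, normalised per array to reference genes. Expression given relative to each gene's median across all conditions.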

human macrophages = experiment: Custom gene array, macrophages with no cytokines, IL-10 or LPS + IFN, in normoxia and hypoxia; format: cell-based; settings: for mRNA EXPRESSION (experimental condition) #1: #1 no cytokines/normoxia; for mRNA EXPRESSION (experimental condition) #2: #2 no cytokines/hypoxia; for mRNA EXPRESSION (experimental condition) #3: #3 IL-10/normoxia; for mRNA EXPRESSION (experimental condition) #4: #4 IL-10/hypoxia; for mRNA EXPRESSION (experimental condition) #5: #5 LPS/IFN/normoxia; for mRNA EXPRESSION (experimental condition) #6: #6 LPS/IFN/hypoxia
Method in brief: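 Cultured macrophages were left untreated or given IL-10 or LPS + IFN, each at 100 ng/ml final, for 6 hr under normoxia or hypoxia (0.1% oxygen). Six conditions in total.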

[2] = Table 15, referenced to the median value of that gene throughout all 6 conditions
[3] = Table 16, referenced to median of the gene over 6 conditions

B1: p1F6 (nucleic acid, listed as Homo Sapiens)
DNA: GTCCATCTTGCTGCTGTCCACTTTGGGTTCCATCTTGGGCTCCATCTTGCTCTCACGATTAAAAGCTTCTTTCCTGCTTTCCCCATTCCGACCATCATTTGCACCCCGGTTCTCCCCATGCCGGCCTGCGCTTCCTCCATGTCTGTTCTCCCCGTGCCGATGGCCATCAGTATGACGGCTGCTGCTTTCTGGATGGCGGTATCCATCTCCATGGCGACCACCATCTCCGTGACGTGGACTATCGCTATGCCGATTGCCAGTCTCTCCGTGACTGTGACGGCTGCTGCCCCGGTTCTCAGTATATCTCTCTCTTTTCCCGTTGCTGCCCCCAGTCCCTTCTCGGCTGTTATTCCCTGAAGCTGTGTTGTTGACTCCTTGGGCTCCGGCAGACGGGTAGGTCACAGGGGCACCACTGATGTTGCCAGTATTGCCAAAGCCTGGGATGCCCTTGGCGGCACTGGTGACGGGGCTGTCAGGACTGTTATGGCCCTGTTGTGCTGAGTTAGTTGGAACAGAATTCAAGCTCCCTGCACTAGTCCACCTGCCCCACTGCTTCTTCGCTTCTCTCTTGGAAAGTCCAGTCTCTCCTCGGCTTGCAATGGACCCCAACTGCTCCTGCGCCGCTGGTGTCTCCTGCACCTGCGCTGGTTCCTGCAAGTGCAAAGAGTGCAAATGCACCTCCTGCAAGAAGAGCTGCTGCTCCTGCTGCCCCGTGGGCTGTAGCAAGTGTGCCCAGGGCTGTGTTTGCAAAGGGGCGTCAGAGAAGTGCAGCTGCTGCGACTGATGCCAGGACAACCTTTCTCCCAGATGTAAACAGAGAGACATGTACAAACCTGGATTTTTTTTTTATACCACCTTGACCCATTTGCTACATTCCTTTTCCTGTGAAATATGTGAGTGATAATTAAACACTTTAGACCTGAAAAAAAAAAAAAAAAAAAAAAAAAAAAAAAAAAAAAAAAAAAAAAAAAAAAAAAAAAAAAAAAAAAAAAAAAAAAAAAAAAAAAAAAAAAAAAAAAAAAAAAAAAAAAAAAAAAAAAAAAAAAAAAAAAAAAAAAAAAAAAAAAAAAA
- HIGHEST FOLD CHANGE IN HYPOXIA (hr hypoxia + cell type) ([1]; 18 hr monocyte): 67.4 (18 hr monocyte) fold
- mRNA EXPRESSION (experimental condition) #1 (human macrophages; [2]): 0.44
- mRNA EXPRESSION (experimental condition) #2 (human macrophages; [2]): 1.08
- mRNA EXPRESSION (experimental condition) #3 (human macrophages; [2]): 0.47
- mRNA EXPRESSION (experimental condition) #4 (human macrophages; [2]): 1.06
- mRNA EXPRESSION (experimental condition) #5 (human macrophages; [2]): 1.11
- mRNA EXPRESSION (experimental condition) #6 (human macrophages; [2]): 2.47

B2: p1E1 (nucleic acid, listed as Homo Sapiens)
DNA: TTTTGGTCTGAGAATGATGGACATTTAGACACTGGCGCCAGGTTTGCGCTGGACCGGCGCACGCAGGGGTTGGGCGGACGAAAGACACACAGGTGGGCTACAGGTGTCACACGGCACCAGCCAGGGCCCGGGGTGGCTGGGGTGAGGATGGGTGTTTGGCCAGTGACCAGGAGTCAGGTCAAGTCCAGGTGGTCAGTGCCAGGGGTCCCAGGAGGGGAGGGCAGTGCATTAACCCTCCTGGTGTCCAGCGTCACCAGGCGGTCGTCACAGAAAGCAACCTCGGCCCGGGGCCG
modifications: EST array clone
- mRNA expression level, #1 HY 6 hr ([1]; cell type #1, hypoxia 6 hr): 1.31
- mRNA expression level, #1 HY 18 hr ([1]; cell type #1, hypoxia 18 hr): 2.14
- mRNA expression level, #1 NO ([1]; cell type #1, normoxia): 2.91
- mRNA expression level, #2 HY 6 hr ([1]; cell type #2, hypoxia 6 hr): 6.21
- mRNA expression level, #2 HY 18 hr ([1]; cell type #2, hypoxia 18 hr): 2.25
- mRNA expression level, #2 NO ([1]; cell type #2, normoxia): 3.07
- mRNA expression level, #3 HY 6 hr ([1]; cell type #3, hypoxia 6 hr): 2.11
- mRNA expression level, #3 HY 18 hr ([1]; cell type #3, hypoxia 18 hr): 1.28
- mRNA expression level, #3 NO ([1]; cell type #3, normoxia): 1.08
- mRNA expression level, #4 HY 6 hr ([1]; cell type #4, hypoxia 6 hr): 1.01
- mRNA expression level, #4 HY 18 hr ([1]; cell type #4, hypoxia 18 hr): 1.21
- mRNA expression level, #4 NO ([1]; cell type #4, normoxia): 1.02
- mRNA expression level, #5 HY 6 hr ([1]; cell type #5, hypoxia 6 hr): 0.80
- mRNA expression level, #5 NO ([1]; cell type #5, normoxia): 0.56
- mRNA expression level, #6 HY 6 hr ([1]; cell type #6, hypoxia 6 hr): 1.16
- #6 HY 18 hr (mRNA expression level) ([1]; cell type #6, hypoxia 18 hr): 1.25
- mRNA expression level, #6 NO ([1]; cell type #6, normoxia): 0.64
- #7 HY 6 hr (mRNA expression level) ([1]; cell type #7, hypoxia 6 hr): 0.42
- #7 HY 18 hr (mRNA expression level) ([1]; cell type #7, hypoxia 18 hr): 0.29
- #7 NO (mRNA expression level) ([1]; cell type #7, normoxia): 0.29
- #8 HY 6 hr (mRNA expression level) ([1]; cell type #8, hypoxia 6 hr): 0.47
- #8 HY 18 hr (mRNA expression level) ([1]; cell type #8, hypoxia 18 hr): 0.91
- #8 NO (mRNA expression level) ([1]; cell type #8, normoxia): 0.28
- #9 HY 6 hr (mRNA expression level) ([1]; cell type #9, hypoxia 6 hr): 1.24
- #9 HY 18 hr (mRNA expression level) ([1]; cell type #9, hypoxia 18 hr): 0.88
- #9 NO (mRNA expression level) ([1]; cell type #9, normoxia): 1.03
- #10 HY 6 hr (mRNA expression level) ([1]; cell type #10, hypoxia 6 hr): 0.61
- #10 HY 18 hr (mRNA expression level) ([1]; cell type #10, hypoxia 18 hr): 0.60
- #10 NO (mRNA expression level) ([1]; cell type #10, normoxia): 0.32
- #11 HY 6 hr (mRNA expression level) ([1]; cell type #11, hypoxia 6 hr): 4.39
- #11 HY 18 hr (mRNA expression level) ([1]; cell type #11, hypoxia 18 hr): 2.33
- #11 NO (mRNA expression level) ([1]; cell type #11, normoxia): 3.03
- HIGHEST FOLD CHANGE IN HYPOXIA (hr hypoxia + cell type) ([1]; 6 hr cardiomyocyte): 3.24 (6 hr cardiomyocyte) fold
- mRNA EXPRESSION (experimental condition) #1 (human macrophages; [3]): 1.21
- mRNA EXPRESSION (experimental condition) #2 (human macrophages; [3]): 1.64
- mRNA EXPRESSION (experimental condition) #3 (human macrophages; [3]): 0.94
- mRNA EXPRESSION (experimental condition) #4 (human macrophages; [3]): 1.35
- mRNA EXPRESSION (experimental condition) #5 (human macrophages; [3]): 0.51
- mRNA EXPRESSION (experimental condition) #6 (human macrophages; [3]): 0.63

— patent US20030203372A1, “Analysis method” (priority 2000, published 2003)
